Results taken from patent US20210171652A1 (University of Pennsylvania, published 2021).

T1: Band 3 / glycophorin A (Wright b, Wrb epitope) on human red blood cells (human, UniProt P02724 20-150)
T1 construct: whole, on cells; also called Band3/GPA; AE1
T1 sequence 1: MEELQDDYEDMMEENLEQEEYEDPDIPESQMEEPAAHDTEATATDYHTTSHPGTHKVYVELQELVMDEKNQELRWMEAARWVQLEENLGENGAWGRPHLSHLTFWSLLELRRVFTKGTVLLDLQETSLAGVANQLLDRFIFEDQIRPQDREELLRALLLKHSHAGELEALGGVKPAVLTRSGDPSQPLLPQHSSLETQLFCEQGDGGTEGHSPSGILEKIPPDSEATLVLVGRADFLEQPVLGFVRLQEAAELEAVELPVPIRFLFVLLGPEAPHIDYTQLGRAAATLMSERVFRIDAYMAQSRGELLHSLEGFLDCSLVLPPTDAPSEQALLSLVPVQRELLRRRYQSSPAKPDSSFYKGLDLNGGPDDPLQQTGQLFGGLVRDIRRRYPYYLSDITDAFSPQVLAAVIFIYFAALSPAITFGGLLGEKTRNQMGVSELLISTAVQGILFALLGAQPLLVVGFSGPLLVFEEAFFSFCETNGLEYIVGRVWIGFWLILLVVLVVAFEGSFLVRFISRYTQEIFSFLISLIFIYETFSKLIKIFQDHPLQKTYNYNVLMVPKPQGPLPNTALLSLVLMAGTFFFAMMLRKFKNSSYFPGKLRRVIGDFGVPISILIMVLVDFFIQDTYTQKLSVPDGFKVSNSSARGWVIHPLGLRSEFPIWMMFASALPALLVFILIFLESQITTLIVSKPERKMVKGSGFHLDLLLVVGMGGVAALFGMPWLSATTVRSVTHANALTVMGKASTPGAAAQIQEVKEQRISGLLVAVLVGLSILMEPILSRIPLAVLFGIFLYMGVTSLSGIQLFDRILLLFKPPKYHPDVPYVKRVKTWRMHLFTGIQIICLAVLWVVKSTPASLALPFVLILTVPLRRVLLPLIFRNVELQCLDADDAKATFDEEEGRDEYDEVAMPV
T1 sequence 2: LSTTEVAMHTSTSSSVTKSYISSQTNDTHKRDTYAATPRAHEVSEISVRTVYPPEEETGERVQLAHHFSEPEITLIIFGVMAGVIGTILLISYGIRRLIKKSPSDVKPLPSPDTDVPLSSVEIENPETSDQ

T2: human RhCE protein (RHCE; Rh17/Hr0 epitope) on human red blood cells (human, UniProt P18577 2-417)
T2 construct: Target on intact human RBCs of donors
T2 chain: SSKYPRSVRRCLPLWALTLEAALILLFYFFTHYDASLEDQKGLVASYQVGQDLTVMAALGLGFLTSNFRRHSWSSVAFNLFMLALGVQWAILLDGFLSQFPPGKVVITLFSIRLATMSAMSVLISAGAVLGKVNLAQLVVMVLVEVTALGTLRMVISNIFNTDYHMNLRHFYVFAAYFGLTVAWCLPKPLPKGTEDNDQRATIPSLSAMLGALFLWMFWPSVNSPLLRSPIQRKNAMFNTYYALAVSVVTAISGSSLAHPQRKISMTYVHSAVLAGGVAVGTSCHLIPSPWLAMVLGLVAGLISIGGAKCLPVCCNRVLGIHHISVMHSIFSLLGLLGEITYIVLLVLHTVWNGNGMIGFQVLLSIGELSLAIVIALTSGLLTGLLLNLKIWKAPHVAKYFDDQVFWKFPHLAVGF


How the values were obtained:
[1] = molecular target: T1, Band 3 / glycophorin A (Wright b, Wrb …); experiment: Fab/phage binding assays on human RBCs incl. rare RBC types lacking conserved antigens
Protocol: (§1) An IgG Fab/phage display library was prepared from the peripheral blood lymphocytes of a hyperimmunized macaque using homologous human V-region oligonucleotides (Siegel D L, R. M., Lee H, Blancher A., Production of large repertories of macaque mAbs to human RBCs using phage display. Transfusion, 1999. 39(S10): p. 92S, which is incorporated herein by reference). Fab/phage specific for human RBCs were isolated by panning on intact human RBCs. Monoclonal Fab/phage were grown to produce antibodies for immunoassays and their corresponding DNA was extracted for sequencing. To identify target epitopes, antibodies were screened against RBCs of known serologic phenotypes, including rare cells lacking highly conserved antigens, using standard immunohematologic techniques (Roback, J. D., Technical Manual. 2014: American Association of Blood Banks (AABB), which is incorporated herein by reference.)
(§2) Using antibody phage display, we identified non-human-primate Fab antibody fragments to antigenic determinants on human RBCs. By panning phage libraries on human RBCs, we produced a Fab/phage preparation with >10⁷ RBC-specific clones capable of agglutinating human RBCs. By performing binding assays against rare RBC types lacking highly conserved antigens and epitopes, we identified the target antigens of >30 of these clones. At least 34 clones bound the Wright b (Wrb) epitope formed by a Band 3/GPA interaction, present on the RBCs of essentially 100% of the human population. The Wrb epitope, determined by the protein sequence of Band 3, is a site of association between Band 3 with GPA, and GPA expression is simultaneously required for its presence on the membrane (Huang C H, Reid M E, Xie S S, Blumenfeld 00. Human red blood cell Wright antigens: a genetic and evolutionary perspective on glycophorin A-band 3 interaction. Blood. 1996; 87(9):3942-3947). At least 3 other clones bound to a highly-conserved epitope Rh17(Hr0) on human RhCE protein, also present on essentially 100% of the human population. Both these targets are specific for erythroid lineage (Rojewski M T, Schrezenmeier H, Flegel W A. Tissue distribution of blood group membrane proteins beyond red cells: evidence from cDNA libraries. Transfus Apher Sci.

[2] = molecular target: T2, human RhCE protein (RHCE; Rh17/Hr0 …); experiment: as above
Protocol: as §1, §2

Binder	binding result [1]	binding result [2]
KP2-19 Fab/phage clone (anti-Band 3, Wrb) (Fab, V domains shown) VH: EVQLLESGPGLVKPSETLSLTCAVSGGSINGGYDWTWIRQSPGKGLQWIGWIYGSRGTTNYNPSLRNRVTISIDTSRNQFSLRLSSLTAADTAVYYCAKRVGYGNSYFDSWGQGVLVTVSS VL: ELTLTQSPATLSLSPGERATLSCRASQSVSSRLAWYQQKPGQAPRLLIYDASSRVTGIPDRFSGSGSGTDFTLTISSLEPEDVGVYHCQQYNDLLPLTFGGGTKVEIK	binds	
KP2-17 Fab/phage clone (anti-Band 3, Wrb) (Fab, V domains shown) VH: EVQLLESGPGLVKPSETLSLTCAVSGYSISSGYGWTWIRQPPGKGLEWIGYIGGSRGNANYNPSLKSRVTISKDTSKNQFSLKLTSVTAADTAVYYCARDGGYGERYLEFWGQGALVTVSS VL: AAELTQSPAFRSVTLKEKVTITCQASQSIGSSLHWYQQKPDQSPKLLIKFASQSISGVPSRFSGSGYGTDFTLTINSLEAEDAATYYCHQSSSFPWTFGQGTKVEIK	binds	
KP2-23 Fab/phage clone (anti-Band 3, Wrb) (Fab, V domains shown) VH: EVQLLESGPGLVKPSETLSLTCTVSGSSLSSAYGWNWIRQPPGKGLEWIGSIGGSRDNTNYNPSLKRRVTISKDTSKNQFSLKLKSVTAADTAVYYCAQRGAYGYSYFDYWGQGVLVAVSS VL: ELTLTQSPATLSLSPGETATLSCRASQTVGRNLAWYQQRPGQAPNLLVHSAYFRATGIPDRFSGSGSGTDFTLTISSLEPEDAGVYHCQQYNDLLPLTFGGGTKVEIK	binds	
KP3-07 Fab/phage clone (anti-Band 3, Wrb) (Fab, V domains shown) VH: EVQLLESGPGLVKPSETLSLTCTVSGSSLSSAYGWNWIRQPPGKGLEWIGSIGGSRDNTNYNPSLKRRVTISKDTSKNQFSLKLKSVTAADTAVYYCAQRGAYGYSYFDYWGQGVLVTVSS VL: ELVMTQSPATLSLSPGETATLSCRASQSIGSNLAWYQQKPGQAPKLLVHSANIRATGIPDRFIGSGSRTDFTLTISSLEPEDVGVYHCQQYNDFLPLTFGGGTKVEIK	binds	
KP3-06 Fab/phage clone (anti-Band 3, Wrb) (Fab, V domains shown) VH: EVQLLESGPGLVRPSETLSVTCDVSGGSISSASWSWIRQAPGKRLEWIGAISGSGSPTNVNPSLKSRVTLSVDTSKNQLSLKLRSMTAADTAVYYCARRGGYGNRYFDYWGQGVAVTVSS VL: AAELTQSPATLSLSPGETATLSCRASQSVGSSLAWYQQKPGQAPKLLVHSAYFRATGIPDRFSGSGSRTDFTLTISSLEPEDVGVYHCQQYNDLLPLTFGGGTKVEIK	binds	
KP3-19 Fab/phage clone (anti-Band 3, Wrb) (Fab, V domains shown) VH: EVQLLESGPGLVKPSETLSLTCAVSGGSLSGGYDWYWIRQSPRKGLEYIGYIYDSRGTTNYNPSLKNRVTISIDTSKNHFSLNLKSVTAADTAVYYCARRVGYGATYFDLWGQGVLVTVSS VL: ELVMTQSPATLSLSPGETATLSCRASQSVGSNLAWYQQKPGQAPKLLVHSANFRATGISDRFSGSGSRTDFTLTISSLEPEDVGVYHCQQYNDLLPLTFGGGTKVEIK	binds	
KP3-09 Fab/phage clone (anti-Band 3, Wrb) (Fab, V domains shown) VH: EVQLLESGPGLVKPSETLSLTCAVSSLSLSSGFAWSWIRQPPGEGLEWIGSIGGSRDNVNYNPSLKSRVTISKDTSKNQFSLRLRSVTAADTAVYYCVTIHGYRNWYLDHWGQGVLVTVST VL: AAELTQSPAILSLSPGETATLSCRASQSIGTSLAWYQQKPGQAPKLLVHSAYYRATDIPERFSGSGSRTDFTLTISSLEPEDVGVYHCQQYNDLLPLTFGGGTKVEIK	binds	
KP3-20 Fab/phage clone (anti-Band 3, Wrb) (Fab, V domains shown) VH: EVQLLESGPGLVKPSETLSLTCAVSGYSISSGFAWNWIRQTPGKGLEWIGYIGGSRDNTNYNPSLKSRVTISKDTSKNQFSLKLTSMTAADTAMYYCARRGAYGNSYFDFWGQGVPVTVSS VL: AAELTQSPATLSLSPGETATLSCRASQSVGSNVAWYQQKPGQAPKLLVHSAYYRATGIPDRFSGSGSRTDFTLTISSLEPEDVGVYHCQQYNDLLPLTFGGGTKVEIK	binds	
KP3-11 Fab/phage clone (anti-RHCE, Rh17) (Fab, V domains shown) VH: EVQLLESGPGLVKPSETLSLTCGVSGASISNYWWSWIRQSPGKGLEWIGEIDGSTYSTHYNPSLKGRVTISKDASKNQLSLRLTSVTAADTAVYYCAREGQDPLAPTLATSGSGLDSWGRGLVVSVSS VL: ELQMTQSPSSLSASLGDRVTITCRASENVNNYLHWYQQKPGKAPKLLIYAASTLQSGVPSRFSGSGSGTDFTLTISSLQPEDVATYYCQHSYGTPLTFGGGTKVEIK		binds
KP3-14 Fab/phage clone (anti-RHCE, Rh17) (Fab, V domains shown) VH: EVQLLESGPGLGKPSETLSLTCGVSGASISNYWWSWIRQSPGKGLEWIGEIDGSTYSTHYNPSLKGRVTISKDASKNQLSLRLTSVTAADTAVYYCAREGQDPLAPTLATSGSGLDSWGRGLVVTVSS VL: ELQMTQSPSALSASVGDRVTISCRASQDIYSNLAWYQQKPGKAPKLLIYGASRLQSGIPSRFSASGAGTEFTLTISGLQPEDSAVYYCQEVHRNPFTFGPGTKLDIK		binds
KP2-22 Fab/phage clone (anti-Band 3, Wrb) (Fab, V domains shown) VH: EVQLLESGPGLVKPSETLSLTCAVSGDSISSGYGWSWIRQTPGKGLEWIGYIGGSRGNTNYNPSLKSRVTISKDTSKNQFSLKLSSVTAADTAVYYCARRAPYWGYSYLDYWGQGVLVTVSS VL: ELTLTQSPATLSLAPGETATLSCRASQSIGTNLAWYHQKPGQSPKLLVHSAYVRATGIPDRFSGSGSRTDFTLTINSLQPEDVGVYHCQQYNDLLPLTFGGGTKVEIK	binds	
KP3-12 Fab/phage clone (anti-Band 3, Wrb) (Fab, V domains shown) VH: EVQLLESGPGLVKPSETLSLTCAVSGNSISSAYGWHWIRQVPGKGLEWIGSIGGSRGTTNYNPSLKSRGTISEDTSKNQFSLRLRSVSAADTAVYFCARDSGYSFRYFDFWGRGVLVTVSS VL: AAELTQSPATLSLAPGETATLSCRASQSIGTNLAWYHQKPGQPPKLLVHSAYVRATGIPNRFSGSGSRTDFTLTINSLQPEDVGVYHCQQYNDLLPLTFGGGTKIDIK	binds	
KP2-24 Fab/phage clone (anti-Band 3, Wrb) (Fab, V domains shown) VH: EVQLLESGPGLVKPSETLSLTCTVSGYSISSGYGWGWIRQSPGKGLEWIGYFGGSRGNTNYNPSLKSRVTISQDTSKNQFSLKLKSVTAADTGIYYCARDSGYSRRWVDYWGQGVLVTVSS VL: AAELTQSPATLSLAPGETATLSCRASQSVGTNLAWYHQKPGQPPKLLVHSAYVRATGIPDRFSGSGSRTDFTLTINSLQPEDVGVYHCQQYNDLLPLTFGGGTKIDIK	binds	
